Consider two molecules from patent publication US20260092097A1 (ALTOR BIOSCIENCE, published 2026).

The test concerns the target T1, IL-15 receptor (IL-15RβγC) on 32Dβ cells (human; mouse, UniProt P14784 27-551; P34902 23-369).
T1 sequence (looked up) 1: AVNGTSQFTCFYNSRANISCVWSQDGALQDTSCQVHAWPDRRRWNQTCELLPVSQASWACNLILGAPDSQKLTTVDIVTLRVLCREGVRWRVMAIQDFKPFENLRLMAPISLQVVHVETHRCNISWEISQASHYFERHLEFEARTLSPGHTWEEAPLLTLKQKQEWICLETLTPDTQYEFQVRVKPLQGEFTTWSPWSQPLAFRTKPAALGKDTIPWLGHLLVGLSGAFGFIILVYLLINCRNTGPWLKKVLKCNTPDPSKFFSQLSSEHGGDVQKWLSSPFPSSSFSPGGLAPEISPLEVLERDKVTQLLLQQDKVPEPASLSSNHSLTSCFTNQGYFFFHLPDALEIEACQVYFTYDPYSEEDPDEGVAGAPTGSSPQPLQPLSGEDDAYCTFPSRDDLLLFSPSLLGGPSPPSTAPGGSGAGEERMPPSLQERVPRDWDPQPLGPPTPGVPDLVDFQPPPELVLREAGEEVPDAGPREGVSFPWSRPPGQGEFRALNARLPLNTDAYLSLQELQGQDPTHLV
T1 sequence (looked up) 2: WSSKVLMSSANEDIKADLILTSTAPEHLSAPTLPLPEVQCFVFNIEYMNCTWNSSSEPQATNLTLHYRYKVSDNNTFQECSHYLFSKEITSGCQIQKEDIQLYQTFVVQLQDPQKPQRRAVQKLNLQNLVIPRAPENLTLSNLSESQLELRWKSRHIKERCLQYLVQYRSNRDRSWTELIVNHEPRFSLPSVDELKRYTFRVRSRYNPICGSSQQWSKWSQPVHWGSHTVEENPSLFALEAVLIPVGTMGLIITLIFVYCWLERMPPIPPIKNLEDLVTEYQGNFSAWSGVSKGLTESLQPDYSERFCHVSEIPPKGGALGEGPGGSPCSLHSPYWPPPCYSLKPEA
Description: cell-based or functional assay.

B1: IL-15N72D:IL-15RαSu/Fc complex (Alt-803) (Fc fusion)
chain 1: PELLGG
chain 2: PEAAGG
On to B1, for which the “IL-15 dependent 32Dβ cell proliferation, EC50” value was found to be 0.0156 nM.

B2: in vitro assembled IL-15N72D:IL-15RαSu/Fc complex (IL-15N72D:IL-15RαSu/Fc IVA) (Fc fusion)
chain 1: PELLGG
chain 2: PEAAGG
On to B2, for which the “IL-15 dependent 32Dβ cell proliferation, EC50” value stood at 0.0158 nM.
